This test addresses T1, Native p17-33.
T1 construct: also called AMHR2-ED 17-33 17-mer peptide
T1 peptide: GSTKTLGELLDTGTELP
Nature of the test: SPOT peptide array of membrane-bound 17-mer peptides, 4D12G1, chemiluminescence. The method, then:
on cellulose membranes (JPT Peptide Technologies, Berlin, Germany), treated overnight with blocking buffer (Thermo Fisher), followed by treatment with the 4D12G1 mAb at 1.0 μg/ml for 3 hours at room temperature, followed by three washes with PBS containing 0.01% Tween-20 (Bio-Rad). The membranes were then treated with a 1:10,000 dilution of an HRP-conjugated rabbit anti-mouse IgG (MilliporeSigma) followed by three washes with PBS containing 0.01% Tween-20 (Bio-Rad). Bound antibody was detected using the HyGLO chemiluminescence system (Thomas Scientific).
An overlapping series of 16-mer peptides spanning the entire 132 amino acid sequence of human AMHR2-ED (FIG. 3A) with moving single amino acid shifts were plated for direct ELISA testing using the 4D12G1 mAb as primary antibody. […] To determine amino acids recognized by the 4D12G1 mAb, an overlapping series of peptides spanning the immunoreactive sequence comprising AMHR2-ED 13-30 were synthesized with alanine substitutions at each N-terminal residue or with glycine substitutions for any native N-terminal alanine. These peptides were used in competitive ELISAs to determine which residues inhibit binding of the 4D12G1 mAb with solid phase rhAMHR2-ED. […] Bound antibody was detected by chemiluminescence. […]

B1: 4D12G1 mAb (antibody, IgG1, V domains shown)
VH: DVKLVESGGGLVKLGGSLKLSCAASGFTFSRYFMSWVRQTPEKRLELVAAINSDGGRTYYPDTVKGRFTISRDNAKNTLYLQMSSLKSEDTALYYCTRHIYSYYEDYFDYWGQGTTLTVSS
VL: DVVMTQTPLSLPVSLGDQASISCRSSQSLVHSNGNTYLHWYLQKPGQSPKLLIYKVSKRFSGVPDRFSGSGSGTDFTLKISRVEAEDLGVYFCSQSTHVYTFGGGTKLEIK
notes: also called 4D12G1 IgG1 mAb
Consider B1, for which the binding result was “binds”.
